In patent publication US20250011391A1, “ULTRA LIGHT-SENSITIVE NEUROPSIN-BASED OPTOGENETIC TOOL FOR ACTIVATING G q-COUPLED SIGNALING AND/OR ACTIVATING CELLS” (GENANS BIOTECHNOLOGY CO., LTD, priority 2021, published 2025):

Test system: astrocytes within the mouse S1 cortex
Assay: In vivo two-photon imaging (920 nm) of ATP release (GRABATP sensor) following astrocyte activation
Experimental: The performance of cOpn5-mediated optogenetics in vivo is tested. Astrocytes represent an important population of non-excitable cells in the central nervous system, over which optogenetic tools have achieved only limited success to date^42. ATP is known as a messenger for inter-astrocyte communication; however, the real-time impacts of intracellular Ca^2+ on ATP release have not been visualized. Ultrasensitive GPCR Activation-Based ATP sensor GRABATP is used to monitor changes in extracellular ATP levels. Specifically, cOpn5 and the GRABATP sensor are expressed in the mouse S1 sensory cortex following the infusion of AAV vectors containing the GfaABC1D promoter (FIG. 6a), which is commonly used to drive gene expression in astrocytes.
Two-photon imaging of GRABATP signals from head-fixed awake, behaving mice is performed (FIG. 6a). It is initially expected that, in addition to the 920 nm light from pulsed laser for two-photon imaging, blue light pulses would be required to stimulate ATP signals. Strikingly, the 920 nm light itself, delivers for imaging, triggered massive ATP flashes in the cOpn5- and GRABATP-expressing mice, but not in mice that expressed the ATP sensor but lacked cOpn5 expression. Individual ATP flashes typically range in diameters of 20-100 μm and lasted for ˜1 min. The flash frequency gradually increases following ˜1 min of initial quiescence and peaked at the level of ˜50 flashes per min within the imaging area (640×640 μm^2) in ˜5 min (FIG. 6b, c and FIG. 7a). Moreover, high-frequency ATP flashes also occurs in the repeated trials (FIG. 7b).
a, Schematic diagram of the experimental setup for in vivo two-photon imaging (920 nm) of ATP release following cOpn5-mediated astrocyte activation. Images show the expression of cOpn5 (red) in astrocytes and the expression of a GRABATP sensor (green) in astrocytes within the mouse S1 cortex. Scale bar, 100 μm.

[1] = cOpn5- and GRABATP-expressing mice, 920 nm light

B1: cOpn5: Chicken (Gallus gallus) Opn5 (neuropsin) ortholog, SEQ ID NO:1, GenBank NM_001130743.1 (protein, listed as Gallus lafayetii)
chain: MSGMASDCNSSSQEEYLPHYVQQEDPFASKLSREADIIAGFYLTVIGILSTLGNGYVIFMSSKRKKKLRPAEIMTVNLAVCDLGISVVGKPFSIISFFSHRWIFGWMGCRWYGWAGFFFGCGSLITMTAVSLDRYLKICHLAYGTWLKRHHAFICLALIWAYATFWATVPFAGVGSYAPEPFGTSCTLDWWLAQASVAGQAFVLSILFFCLLFPTAVIVFSYVKIILKVKSSTKEVAHYDTRIQNSHILEMKLTKVAMLICAGFLIAWIPYAVVSVWSAFGQPDSVPIQFSVVPTLLAKSAAMYNPIIYQVIDCKFACCRSGGPKTLQKKSSLKESRMYTLSSHRDSAALSGTQLEV
With B1 the “initial quiescence before flash frequency increases” value (cOpn5- and GRABATP-expressing mice) was ~1 min, the “diameter of individual ATP flashes” value [1] was 20-100 μm and the “duration of individual ATP flashes” value [1] was ~1 min. The “time to peak ATP flash frequency” value (cOpn5-expressing mice) was ~5 min, the “ATP flash frequency versus proinflammatory (LPS) treatment of non-cOpn5-expressing mice” value (mouse, in vivo) was ~25 times and the two-photon activation wavelength (pulsed laser for two-photon imaging) was ≥ 920 nm. For the same molecule, the “peak ATP flash frequency” value (within the imaging area (640×640 μm2), cOpn5-expressing mice) was ~50 flashes per min.
